# Assays:
# [1] = target: T1, RSV strain 18537 post-fusion F (Human respiratory syncytial virus …, UniProt P13843, strain); test: ELISA; details: both partners purified
# T1 construct: also called RSV B 18537 (post); source: HEK293, transfected, purified from culture supernatant (HiTrap Talon crude)
# [2] = target: T2, RSV strain A2 post-fusion F (Human respiratory syncytial virus …, UniProt P03420, strain); test: ELISA; details: both partners purified
# T2 construct: source: HEK293, transfected, purified from culture supernatant (HiTrap Talon crude)
# [3] = target: RSV strain A2 pre-fusion F, single-chain triple mutant (SC-TM) construct (respiratory syncytial virus subgroup A …); test: cell-based or functional assay
# [4] = target: RSV strain 18537 B pre-fusion F (Ds-Cav1) (Human respiratory syncytial virus …, UniProt P13843, stabilised); test: cell-based or functional assay
Binder,binding result [1],binding result [2],plaque-reduction neutralization of RSV A2 (IC50) [3],plaque-reduction neutralization of RSV 18537 B (IC50) [4]
"hRSV20 (antibody, V domains shown, also called mAb hRSV20) VH: QVQLVESGGGLVQPGRSLRLSCAASGFTFDDYAMHWVRQAPGRGLEWVSGISWNSGIAVYADSVKGRFTISRDNAKKSLYLQINSLRAEDTALYYCVKDNYASGSYSSYYYYYGLDLWGQGTLVTVSS VL: EIVMTQSPATLSVSPGERATLSCRASQSIISNLAWYQQKPGQAPRLLIYGVSTRATGIPARFSGSGSDTEFTLSISSLQSEDFAVYYCQQYNNWPITFGQGTRLEIK",no binding (tested: 1 μg ml^−1),no binding (tested: 1 μg ml^−1),0.045 µg/mL,
"hRSV139 (antibody, V domains shown, also called mAb hRSV139) VH: QVQLVQSGAEVKKPGASVKVSCKASGYVFSNYGISWVRQAPGQGLEWMGWISAYNGNTEFAQKFQGRITMTTDTSTNTAYLEVRGLRSDDTAVYYCSRQSGVSGVPEFQDWGQGTLVTVSS VL: QAVVTQSPLSLPVTLGQPASISCRSSQSLVYSNGDTYLSWFQQRPGQSPRRLIYKVSNRDSGVPDRFSASGSGTDFTLKISRVEAEDVGVYYCMQGTHWPPPTFGQGTRLEIK",no binding (tested: 1 μg ml^−1),no binding (tested: 1 μg ml^−1),0.323 µg/mL,
"hRSV90 (human mAb, IgG) (antibody, V domains shown, IgG1, kappa; also called mAb hRSV90) VH: EVQLVESGGGLVQPRRSLRLSCAASGFTFDDYTIHWVRQAPGKGLEWVSGITWNSGYIGYADSVKGRFTISRDNARNSLYLQMNSLRAEDTALYYCVRDAYVSGSDYYYYGLDVWGRGTLVTVSS VL: EIVMTSSPATLSVSPGERVTLFCRASQSVISNLAWYQQKSGQAPRLLIYGASTRATGIPSRFSGSGSGTEFTLTISSLQSEDFAVYFCQQYNNWPLTFGGGTQVNVQ",no binding (tested: 1 μg ml^−1),no binding (tested: 1 μg ml^−1),0.004 µg/mL,
"hRSV12 (antibody, V domains shown) VH: QVQLVQSGAEVKKPGTSVRVSCKTSGYNFMNYGIYWVRQAPGQGLEWVGWISAYNGQTDRAQKFQGRVTMTTDISTNTGYMDLRSLRSDDTAVYFCARGPPVIAAVSLEYWGRGTLVTVSS VL: EVVMTQSPLSLPVTLGQPASISCKSSQSLVHSNGDTYLNWFQQRPGQSPRRLIYKVSNRDSGVPDRFSGSGSGTDFTLKISRVETEDVGVYYCMQATHWPGSFGQGTKLEIK",,,0.176 µg/mL,0.126 µg/mL
"hRSV97 (antibody, V domains shown, also called mAb hRSV97) VH: EVQLVESGGTLVQPGRSLRLSCAASGFNFEEYAMHWVRQVPGKGLEWVARINWNGGIIGYADSVKGRFTISRDNAKKSLYLQMNSLRTDDSALYYCGKDVFWAVAGTGGPIDSWGQGTLVTVSS VL: DIVMTQSPSSLSASIGDRVTISCRASRDISNYLAWYQQKSGKVPKLLIYAASTLESGVPSRFSGSGSGTDFTLTISSLQPEDVATYYCQNYNSAQMCSFGQGPSLEIK",no binding (tested: 1 μg ml^−1),no binding (tested: 1 μg ml^−1),0.35 µg/mL,
"hRSV61 (antibody, V domains shown, also called mAb hRSV61) VH: QVQLVQSGAELKKPGASVKVSCKASGYTFTNHGITWVRQAPGQGLEWMSWISGYNGNTQYAQKFQGRVTMTTDTSTRTAYMELRSLTSDDTAVYYCARDNGVVVGPPDYWGQGTLVTVSS VL: DIQMTQSPSTLSASVGDRVTISCRASQSISSWLAWYQQKPGKPPKLLIYKASGLQTGVPSRFSGSGSGTEFTLTISSLQPDDFATYYCQYYHSLSAFGQGTKVEIK",no binding (tested: 1 μg ml^−1),no binding (tested: 1 μg ml^−1),0.09 µg/mL,

# Reference: publication PMC5463187 (Nature microbiology, 2017)
